From patent US20070135335A1 (AUTOGEN RESEARCH, published 2007)

Key:
[1] = molecular target: T1, GST-CLK2 (recombinant human CLK2 fused to glutathione S-transferase, pGEX4T-1) (human, UniProt P49760 1-499); assay: SPR (Biacore J), Beacon immobilised on CM5 chip, GST-CLK as analyte
T1 construct: Expressed in E. coli BL21; whole entry named; not shown: glutathione S-transferase tag of expression vector pGEX4T-1
Procedure: (§1) FIG. 3 is a graphical representation showing the interaction between Beacon and human CLK1, 2 and 4. SPR analyses were performed as described in the Examples. Beacon immobilized on CM5 sensor chip generated 1800-2100 RU. Analyte samples injected and the heat treatments are as listed here:—
(§2) SPR analyses were performed with minor variations as described in Walder et al., 2002, supra using a Biacore J instrument (Biacore AB). Beacon was attached to a CM5 sensor chip at pH 5.5 by an amine coupling reaction. HBS-EP (10 mM Hepes pH 7.4/0.15 M NaCl/3 mM EDTA/0.005% Polysorbate 20) was used as running buffer. Flow cells 1 and 2 in the sensor chip were treated in the same manner except that ligand was absent in flow cell 2 which served as a reference cell. Binding experiments were performed in dual channel mode and the reference subtracted sensorgrams represented true binding patterns between ligand and analyte. Test samples diluted to 130 μl in running buffer were injected over a fixed duration of 4 min. For heat treatments, proteins were initially diluted to 20 μl in running buffer, incubated at 65 or 70° C. for 10 min, centrifuged for 30 sec, reconstituted to a final volume of 130 μl with running buffer and injected as usual. Between injections, chips were regenerated using 40 μl of 10 mM NaOH.

[2] = molecular target: T2, GST-CLK4 (recombinant human CLK4 fused to glutathione S-transferase, pGEX4T-1) (human, UniProt Q9HAZ1 1-481); assay: as above
T2 construct: Expressed in E. coli BL21; whole entry named; not shown: glutathione S-transferase tag of expression vector pGEX4T-1
T2 sequence (Q9HAZ1 whole entry, the tested form may be a part): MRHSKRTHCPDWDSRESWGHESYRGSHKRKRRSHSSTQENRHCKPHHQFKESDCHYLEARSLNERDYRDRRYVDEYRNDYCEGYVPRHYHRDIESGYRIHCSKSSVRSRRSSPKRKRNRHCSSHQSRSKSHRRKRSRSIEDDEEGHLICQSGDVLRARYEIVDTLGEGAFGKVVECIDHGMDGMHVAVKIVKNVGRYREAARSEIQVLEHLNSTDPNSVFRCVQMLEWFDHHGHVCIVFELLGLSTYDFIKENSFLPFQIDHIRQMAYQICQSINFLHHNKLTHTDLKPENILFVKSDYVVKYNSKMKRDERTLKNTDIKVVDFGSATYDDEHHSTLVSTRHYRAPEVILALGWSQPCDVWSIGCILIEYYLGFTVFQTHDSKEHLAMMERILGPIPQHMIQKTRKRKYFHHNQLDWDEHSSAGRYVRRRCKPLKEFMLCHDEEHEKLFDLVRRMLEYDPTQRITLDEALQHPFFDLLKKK
Procedure: as §1, §2

[3] = molecular target: T3, GST-CLK1 (recombinant human CLK1 fused to glutathione S-transferase, pGEX4T-1) (human, UniProt P49759 1-484); assay: as above
T3 construct: Expressed in E. coli BL21; whole entry named; not shown: glutathione S-transferase tag of expression vector pGEX4T-1
T3 sequence (P49759 whole entry, the tested form may be a part): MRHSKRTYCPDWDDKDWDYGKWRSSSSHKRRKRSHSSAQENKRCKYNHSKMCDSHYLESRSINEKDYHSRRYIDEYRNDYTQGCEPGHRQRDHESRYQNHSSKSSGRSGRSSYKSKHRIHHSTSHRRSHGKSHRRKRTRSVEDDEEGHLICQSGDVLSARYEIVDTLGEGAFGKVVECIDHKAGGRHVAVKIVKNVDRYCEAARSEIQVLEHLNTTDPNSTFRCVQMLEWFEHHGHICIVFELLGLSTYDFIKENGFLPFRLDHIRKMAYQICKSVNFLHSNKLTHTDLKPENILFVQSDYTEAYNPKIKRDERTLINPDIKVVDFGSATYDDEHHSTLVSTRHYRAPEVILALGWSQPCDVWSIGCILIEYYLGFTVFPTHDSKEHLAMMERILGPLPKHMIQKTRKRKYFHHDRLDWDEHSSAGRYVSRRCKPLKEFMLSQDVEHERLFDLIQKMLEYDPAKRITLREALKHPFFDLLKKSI
Procedure: as §1, §2

[4] = molecular target: T4, GST (recombinant glutathione S-transferase, pGEX2T) (UniProt P08515 1-218 = GST); assay: SPR (Biacore J), Beacon immobilised on CM5 chip
T4 construct: Control protein in SPR
T4 sequence (P08515 whole entry): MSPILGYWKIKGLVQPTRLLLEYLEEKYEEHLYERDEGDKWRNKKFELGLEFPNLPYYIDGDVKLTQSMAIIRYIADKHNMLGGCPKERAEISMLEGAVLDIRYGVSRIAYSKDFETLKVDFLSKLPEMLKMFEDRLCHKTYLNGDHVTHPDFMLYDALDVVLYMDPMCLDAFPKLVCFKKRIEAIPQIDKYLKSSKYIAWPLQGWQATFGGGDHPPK
Procedure: as §2

bovine serum albumin = molecular target: T5, bovine serum albumin (bovine, UniProt P02769 25-607); assay: SPR (Biacore J), Beacon immobilised on CM5 chip
T5 construct: Unrelated control protein in SPR
T5 sequence (P02769 25-607 limits assumed): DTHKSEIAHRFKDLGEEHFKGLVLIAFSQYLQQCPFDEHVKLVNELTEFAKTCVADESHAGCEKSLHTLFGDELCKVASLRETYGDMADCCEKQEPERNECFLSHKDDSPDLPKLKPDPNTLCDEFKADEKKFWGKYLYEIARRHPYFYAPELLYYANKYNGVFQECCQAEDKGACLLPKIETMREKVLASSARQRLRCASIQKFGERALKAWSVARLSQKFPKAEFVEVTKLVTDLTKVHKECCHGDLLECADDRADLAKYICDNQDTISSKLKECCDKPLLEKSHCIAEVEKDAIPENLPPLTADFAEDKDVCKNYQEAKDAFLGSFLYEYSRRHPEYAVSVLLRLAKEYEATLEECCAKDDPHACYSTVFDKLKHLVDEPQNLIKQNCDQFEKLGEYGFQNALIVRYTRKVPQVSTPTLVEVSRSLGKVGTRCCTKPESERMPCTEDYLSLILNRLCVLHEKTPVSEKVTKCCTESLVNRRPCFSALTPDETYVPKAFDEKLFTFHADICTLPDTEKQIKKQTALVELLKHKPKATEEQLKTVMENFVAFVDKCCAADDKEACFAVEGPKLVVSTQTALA
Procedure: as §2

[5] = molecular target: the molecule itself; assay: SPR (Biacore J), Beacon immobilised on CM5 chip
Procedure: as §2

maltose binding protein = maltose binding protein (UniProt P0AEX9 27-396 = MBP); assay: SPR (Biacore J), Beacon immobilised on CM5 chip
Procedure: as §2

T1 sequence (P49760 whole entry, the tested form may be a part): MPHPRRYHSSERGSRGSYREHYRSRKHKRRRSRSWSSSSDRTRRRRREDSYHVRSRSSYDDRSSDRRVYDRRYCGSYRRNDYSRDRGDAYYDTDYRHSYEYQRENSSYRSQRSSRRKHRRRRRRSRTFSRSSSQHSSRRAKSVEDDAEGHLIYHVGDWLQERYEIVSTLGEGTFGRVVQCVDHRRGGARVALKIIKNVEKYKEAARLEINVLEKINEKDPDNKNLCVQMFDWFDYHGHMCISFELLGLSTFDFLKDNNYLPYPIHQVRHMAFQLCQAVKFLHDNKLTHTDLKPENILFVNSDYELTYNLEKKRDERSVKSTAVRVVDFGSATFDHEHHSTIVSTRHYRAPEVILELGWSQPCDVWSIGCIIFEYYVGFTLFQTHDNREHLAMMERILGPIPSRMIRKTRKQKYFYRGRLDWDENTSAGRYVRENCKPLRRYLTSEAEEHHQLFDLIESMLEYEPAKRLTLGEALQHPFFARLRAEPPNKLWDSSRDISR

binding result [1]: binds
binding result [2]: binds
binding result [3]: binds
binding result [4]: no binding
binding result (bovine serum albumin): no binding
binding result (maltose binding protein): no binding
B1: Beacon (recombinant, expressed as GST-Beacon in E. coli, GST tag cleaved off with thrombin) (ligand)
chain: MIEVVCNDRLGKKVRVKCNTDDTIGDLKKLIAAQTGTRWNKIVLKKWYTIFKDHVSLGDYEIHDGMNLELYYQ
notes: Immobilised on a CM5 chip by amine coupling (SPR); also injected as analyte over itself
binding result [5]: no binding
